Measured values reported in patent publication US20230265151A1, “GIP/GLP1 CO-AGONIST COMPOUNDS” (priority 2020, published 2023).
Numbering of substitutions follows the chain as printed. *1 amine or outer side, *2 acyl side, *3 side chain or, on linkers, in order; H or OH if unused. Where no end group is shown, it is not given here. Side-chain parts run from the residue outwards. [ ]: non-standard residue; d: D form. The star is where a group is joined. αMePhe(2-F) = C[C@](N)(Cc1ccccc1F)C(=O)O; γGlu = O=C(O)[C@H](CCC(=O)[*:2])N[*:1]; C14 diacid = O=C(O)CCCCCCCCCCCCC(=O)*; αMeY = C[C@](N)(Cc1ccc(O)cc1)C(=O)O; αMeL = CC(C)C[C@](C)(N)C(=O)O; Orn = NCCC[C@H](N)C(=O)O; AEEA = NCCOCCOCC(=O)O; Aib = CC(C)(N)C(=O)O

T1: human GIP receptor (human, UniProt P48546 22-466)
T1 construct: whole, on cells; also called hGIPR; human glucose-dependent insulinotropic polypeptide receptor
T1 sequence (looked up): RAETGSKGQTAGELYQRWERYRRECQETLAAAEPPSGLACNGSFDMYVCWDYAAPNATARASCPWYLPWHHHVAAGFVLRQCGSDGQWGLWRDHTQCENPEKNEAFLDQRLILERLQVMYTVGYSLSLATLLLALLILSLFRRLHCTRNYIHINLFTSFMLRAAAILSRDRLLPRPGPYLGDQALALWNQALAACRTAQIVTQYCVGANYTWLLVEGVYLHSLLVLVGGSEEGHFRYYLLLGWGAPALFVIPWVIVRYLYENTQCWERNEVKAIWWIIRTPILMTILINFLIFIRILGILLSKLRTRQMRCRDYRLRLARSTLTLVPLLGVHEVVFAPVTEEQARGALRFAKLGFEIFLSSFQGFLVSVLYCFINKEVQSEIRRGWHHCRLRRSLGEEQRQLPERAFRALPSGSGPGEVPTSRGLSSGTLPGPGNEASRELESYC

B1: Y-Aib-EGT-αMeF(2F)-TSD-4Pal-Aib-I-αMeL-LD-Orn-K((2-[2-(2-Amino-ethoxy)-ethoxy]-acetyl)-(γ-Glu)-CO-(CH2)12-CO2H)AQ-Aib-EFI-(D-Glu)-αMeY-LIK((2-[2-(2-Amino-ethoxy … (peptide)
peptide: YXEGTXTSDXXIXLDXKAQXEFIXXLIKGGPSSGAPPPS
modifications: Aib2, αMeF(2F)6, 4Pal10, Aib11, αMeL13, Orn16, K17(Z1), Aib20, D-Glu24, αMeY25, K28(Z1), C-term NH2; Z1=AEEA-(γ-Glu)-CO-(CH2)12-CO2H
B2: Y-Aib-EGT-αMeF(2F)-TSD-4Pal-SI-αMeL-LD-Orn-K((2-[2-(2-Amino-ethoxy)-ethoxy]-acetyl)2-(γ-Glu)-CO-(CH2)10-CO2H)AQ-Aib-EFI-(D-Glu)-αMeY-LIEGGK((2-[2-(2-Amino-ethox … (peptide)
peptide: B1 peptide with X11S, K28E, P31K
modifications: Aib2, αMeF(2F)6, 4Pal10, αMeL13, Orn16, K17(Z1), Aib20, D-Glu24, αMeY25, K31(Z1), C-term NH2; Z1=AEEA2-(γ-Glu)-CO-(CH2)10-CO2H
B3: Y-Aib-EGT-αMeF(2F)-TSD-aMeV-SI-αMeL-LD-Orn-K((2-[2-(2-Amino-ethoxy)-ethoxy]-acetyl)2-(γ-Glu)-CO-(CH2)12-CO2H)AQ-Aib-EFI-(D-Glu)-αMeY-LIEGGK((2-[2-(2-Amino-ethox … (peptide)
peptide: B1 peptide with X11S, K28E, P31K
modifications: Aib2, αMeF(2F)6, αMeV10, αMeL13, Orn16, K17(Z1), Aib20, D-Glu24, αMeY25, K31(Z1), C-term NH2; Z1=AEEA2-(γ-Glu)-CO-(CH2)12-CO2H
B4: Y-Aib-EGT-αMeF(2F)-TSD-4Pal-Aib-I-αMeL-LD-Orn-QAQ-Aib-K((2-[2-(2-Amino-ethoxy)-ethoxy]-acetyl)2-(γ-Glu)-CO-(CH2)12-CO2H)FI-(D-Glu)-αMeY-LIK((2-[2-(2-Amino-ethox … (peptide)
peptide: B1 peptide with K17Q, E21K
modifications: Aib2, αMeF(2F)6, 4Pal10, Aib11, αMeL13, Orn16, Aib20, K21(Z1), D-Glu24, αMeY25, K28(Z1), C-term NH2; Z1=AEEA2-(γ-Glu)-CO-(CH2)12-CO2H
B5: Y-Aib-EGT-αMeF(2F)-TSD-4Pal-Aib-I-αMeL-LD-Orn-QAQ-Aib-EFIK((2-[2-(2-Amino-ethoxy)-ethoxy]-acetyl)3-(γ-Glu)-CO-(CH2)12-CO2H)-αMeY-LIK((2-[2-(2-Amino-ethoxy)-etho … (peptide)
peptide: B1 peptide with K17Q, X24K
modifications: Aib2, αMeF(2F)6, 4Pal10, Aib11, αMeL13, Orn16, Aib20, K24(Z1), αMeY25, K28(Z1), C-term NH2; Z1=AEEA3-(γ-Glu)-CO-(CH2)12-CO2H
B6: Y-Aib-EGT-αMeF(2F)-TSD-4Pal-Aib-I-αMeL-LD-Orn-QAQ-Aib-EFIK((2-[2-(2-Amino-ethoxy)-ethoxy]-acetyl)2-(γ-Glu)-CO-(CH2)12-CO2H)-αMeY-LIK((2-[2-(2-Amino-ethoxy)-etho … (peptide)
peptide: B1 peptide with K17Q, X24K
modifications: Aib2, αMeF(2F)6, 4Pal10, Aib11, αMeL13, Orn16, Aib20, K24(Z1), αMeY25, K28(Z1), C-term NH2; Z1=AEEA2-(γ-Glu)-CO-(CH2)12-CO2H
B7: Y-Aib-EGT-αMeF(2F)-TSD-4Pal-Aib-I-αMeL-LD-Orn-QAQ-Aib-Orn-FIK((2-[2-(2-Amino-ethoxy)-ethoxy]-acetyl)-(γ-Glu)-CO-(CH2)12-CO2H)-αMeY-LIK((2-[2-(2-Amino-ethoxy)-et … (peptide)
peptide: B1 peptide with K17Q, E21X, X24K
modifications: Aib2, αMeF(2F)6, 4Pal10, Aib11, αMeL13, Orn16, Aib20, Orn21, K24(Z1), αMeY25, K28(Z1), C-term NH2; Z1=AEEA-(γ-Glu)-CO-(CH2)12-CO2H
B8: Y-Aib-EGT-αMeF(2F)-TSDY-Aib-I-αMeL-LD-Orn-QAQ-Aib-Orn-FIK((2-[2-(2-Amino-ethoxy)-ethoxy]-acetyl)3-(γ-Glu)-CO-(CH2)12-CO2H)-αMeY-LIK((2-[2-(2-Amino-ethoxy)-ethox … (peptide)
peptide: B1 peptide with X10Y, K17Q, E21X, X24K
modifications: Aib2, αMeF(2F)6, Aib11, αMeL13, Orn16, Aib20, Orn21, K24(Z1), αMeY25, K28(Z1), C-term NH2; Z1=AEEA3-(γ-Glu)-CO-(CH2)12-CO2H
B9: Y-Aib-EGT-αMeF(2F)-TSD-4Pal-SI-αMeL-LD-Orn-K((2-[2-(2-Amino-ethoxy)-ethoxy]-acetyl)2-(γ-Glu)-CO-(CH2)12-CO2H)AQ-Aib-EFI-(D-Glu)-αMeY-LIEGGP S SGAPPP … (peptide)
peptide: YXEGTXTSDXSIXLDXKAQXEFIXXLIEGGPSSGAPPPSK
modifications: Aib2, αMeF(2F)6, 4Pal10, αMeL13, Orn16, K17(Z1), Aib20, D-Glu24, αMeY25, K40(Z1), C-term NH2; Z1=AEEA2-(γ-Glu)-CO-(CH2)12-CO2H
B10: Y-Aib-EGT-αMeF(2F)-TSD-4Pal-Aib-I-αMeL-LD-Orn-K((2-[2-(2-Amino-ethoxy)-ethoxy]-acetyl)-(γ-Glu)-CO-(CH2)12-CO2H)AQ-Aib-EFI-(D-Glu)-αMeY-LIEGGPSSGAPPPSK((2-[2-(2- … (peptide)
peptide: B9 peptide with S11X
modifications: Aib2, αMeF(2F)6, 4Pal10, Aib11, αMeL13, Orn16, K17(Z1), Aib20, D-Glu24, αMeY25, K40(Z1), C-term NH2; Z1=AEEA-(γ-Glu)-CO-(CH2)12-CO2H
B11: Y-Aib-EGT-αMeF(2F)-TSD-4Pal-Aib-I-αMeL-LD-Orn-QAQ-Aib-K((2-[2-(2-Amino-ethoxy)-ethoxy]-acetyl)2-(γ-Glu)-CO-(CH2)12-CO2H)FI-(D-Glu)-αMeY-LIEGGPSSGAPPPSK((2-[2-(2 … (peptide)
peptide: B9 peptide with S11X, K17Q, E21K
modifications: Aib2, αMeF(2F)6, 4Pal10, Aib11, αMeL13, Orn16, Aib20, K21(Z1), D-Glu24, αMeY25, K40(Z1), C-term NH2; Z1=AEEA2-(γ-Glu)-CO-(CH2)12-CO2H
B12: Y-Aib-EGT-αMeF(2F)-TSDV-Aib-I-αMeL-LD-Orn-K((2-[2-(2-Amino-ethoxy)-ethoxy]-acetyl)2-(γ-Glu)-CO-(CH2)12-CO2H)AQ-Aib-EFI-(D-Glu)-αMeY-LIEGGK((2-[2-(2-Amino-ethoxy … (peptide)
peptide: Y[Aib]EGT[αMePhe(2-F)]TSDV[Aib]I[αMeL]LD[Orn]K([AEEA-AEEA-γGlu-C14 diacid])AQ[Aib]EFI[dE][αMeY]LIEGGK([AEEA-AEEA-γGlu-C14 diacid])SSGAPPPS-NH2
modifications: N-terminus assumed
SMILES: CC[C@H](C)[C@H](NC(=O)[C@H](CC(C)C)NC(=O)[C@](C)(Cc1ccc(O)cc1)NC(=O)[C@@H](CCC(=O)O)NC(=O)[C@@H](NC(=O)[C@H](Cc1ccccc1)NC(=O)[C@H](CCC(=O)O)NC(=O)C(C)(C)NC(=O)[C@H](CCC(N)=O)NC(=O)[C@H](C)NC(=O)[C@H](CCCCNC(=O)COCCOCCNC(=O)COCCOCCNC(=O)CC[C@H](NC(=O)CCCCCCCCCCCCC(=O)O)C(=O)O)NC(=O)[C@H](CCCN)NC(=O)[C@H](CC(=O)O)NC(=O)[C@H](CC(C)C)NC(=O)[C@](C)(CC(C)C)NC(=O)[C@@H](NC(=O)C(C)(C)NC(=O)[C@@H](NC(=O)[C@H](CC(=O)O)NC(=O)[C@H](CO)NC(=O)[C@@H](NC(=O)[C@](C)(Cc1ccccc1F)NC(=O)[C@@H](NC(=O)CNC(=O)[C@H](CCC(=O)O)NC(=O)C(C)(C)NC(=O)[C@@H](N)Cc1ccc(O)cc1)[C@@H](C)O)[C@@H](C)O)C(C)C)[C@@H](C)CC)[C@@H](C)CC)C(=O)N[C@@H](CCC(=O)O)C(=O)NCC(=O)NCC(=O)N[C@@H](CCCCNC(=O)COCCOCCNC(=O)COCCOCCNC(=O)CC[C@H](NC(=O)CCCCCCCCCCCCC(=O)O)C(=O)O)C(=O)N[C@@H](CO)C(=O)N[C@@H](CO)C(=O)NCC(=O)N[C@@H](C)C(=O)N1CCC[C@H]1C(=O)N1CCC[C@H]1C(=O)N1CCC[C@H]1C(=O)N[C@@H](CO)C(N)=O
B13: Y-Aib-EGT-αMeF(2F)-TSDV-αMeS-I-αMeL-LD-Orn-K((2-[2-(2-Amino-ethoxy)-ethoxy]-acetyl)2-(γ-Glu)-CO-(CH2)12-CO2H)AQ-Aib-EFI-(D-Glu)-αMeY-LIEGGK((2-[2-(2-Amino-ethox … (peptide)
peptide: B1 peptide with X10V, K28E, P31K
modifications: Aib2, αMeF(2F)6, αMeS11, αMeL13, Orn16, K17(Z1), Aib20, D-Glu24, αMeY25, K31(Z1), C-term NH2; Z1=AEEA2-(γ-Glu)-CO-(CH2)12-CO2H

What was measured:
human GLP-1 receptor = biological target: T2, human GLP-1 receptor (human, UniProt P43220 24-463); assay: SPA competition vs [125I]-GLP-1, hGLP-1R membranes
T2 construct: whole, on cells; also called hGLP-1R; human glucagon-like peptide-1 receptor
Method: The binding buffer contains 25 mM HEPES, pH 7.4, 2.5 mM CaCl₂, 1 mM MgCl₂, 0.1% (w/v) bacitracin, 0.003% (w/v) TWEEN®-20, and Roche Complete™ Protease Inhibitors without EDTA.
(§1) Data are analyzed using four-parameter (curve maximum, curve minimum, IC₅₀, Hill slope) nonlinear regression routines (Genedata Screener, version 12.0.4, Genedata AG, Basal, Switzerland). […] Values for Kᵢ are reported as the geometric mean, with error expressed as the standard error of the mean (SEM) and n is equal to the number of independent replicates (determined in assays performed on different days). Geometric Means are calculated as follows: […]

human GIP receptor = biological target: T1, human GIP receptor; assay: SPA competition vs [125I]-GIP, hGIPR membranes
Method: The binding buffer contains 25 mM HEPES, pH 7.4, 2.5 mM CaCl₂, 1 mM MgCl₂, 0.1% (w/v) bacitracin, 0.003% (w/v) TWEEN®-20, and Roche Complete™ Protease Inhibitors without EDTA. […] Plates are sealed and mixed on a plate shaker (setting 6) for 1 minute and read with a PerkinElmer Trilux MicroBeta® scintillation counter after 2.5 to 12 hours of incubation/settling time at room temperature.
as §1

Binder | Ki (human GLP-1 receptor) [nM] | Ki (human GIP receptor) [nM]
B1 | 2.17 | 0.0747
B2 | 2.99 | 0.145
B3 | 1.16 | 0.0832
B4 | 0.964 | 0.064
B5 | 0.433 | 0.0528
B6 | 1.33 | 0.0375
B7 | 0.224 | 0.023
B8 | 0.246 | 0.0249
B9 | 3.13 | 0.0807
B10 | 2.07 | 0.091
B11 | 0.947 | 0.0912
B12 | 1.26 | 0.126
B13 | 1.17 | 0.161
